In publication PMC3961690 one finds pKa data, which are given here for five substances.

Where “and” joins values, the source holds several entries; their conditions need not be identical. Equal entries are not always repeated. Where two headings read alike, the source gives them in different places.

Series [1] addresses Cys69 (UniProt position 69, FGDYKCPSCKV). The note with it: cited from earlier work.
Series [2] addresses Asp455 (UniProt position 474, KPVMLDLYADW). Description: NMR. The note with it: 298 K, isolated domain, folded.
Series [3] concerns the target Cys461 (UniProt position 480, LYADWCVACKE). The series is described as follows: NMR. To be noted: 298 K, isolated domain, folded.
Series [4] has as its target Cys30 (UniProt position 49, FFSFFCPHCYQ). The note with it: cited from earlier work.
Series [5] addresses Cys32 (UniProt position 32, FSATWCGPCKM). To be noted: reduced human thioredoxin; cited from earlier work.
Series [6] concerns the target Asp26 (UniProt position 26, KLVVVDFSATW). The note with it: cited from earlier work.
Setting [7] is: not stated, 1 mM protein, oxidised (Cys-461-Cys-464 disulfide).
Where [8] appears, read: oxidised (Cys-461-Cys-464 disulfide).
Setting [9] is: not stated, 1 mM protein, reduced (dithiol).

As a reminder, the pKa is the negative logarithm of the acid dissociation constant. With “Disulfide bond formation protein D (BdbD) (Bacillus subtilis)”, the pKa result in series [1] was “less than 4.5”.
On to “DsbD C-terminal domain, Q488A variant (Q488A-cDsbD) (Escherichia coli; Q488A)”, for which the pKa in series [2] (setting [7]) was 7.7 and 7.5; in series [2] (setting [8]) it was 8.0 ± 0.3.
Consider “DsbD C-terminal domain, Q488K variant (Q488K-cDsbD) (Escherichia coli; Q488K)”, for which the pKa in series [3] (not stated (pH adjusted with 0.1 M DCl or NaOD), 1 mM protein, reduced (Cys-461/Cys-464 dithiol)) is 10.3 and 10.5 and 10.4; in series [3] (setting [9]), 10.9; in series [3] (reduced (dithiol)), 10.5 ± 0.2; in series [2] (setting [7]), 8.0; in series [2] (setting [9]) it was 7.2 and 7.1; in series [2] (setting [8]), 8.1 ± 0.2. The pKa in series [2] (reduced (dithiol)) is reported as 7.5 ± 0.4.
Regarding “Thiol:disulfide interchange protein DsbA (Escherichia coli)”, the pKa in series [4] is given as 3.5.
For “Thioredoxin (Trx1), human (Homo sapiens)”, the pKa is 6.3 in series [5], 8.1 in series [6] (oxidised human thioredoxin) and 9.9 in series [6] (reduced human thioredoxin).
